What was measured:
破伤风类毒素 (TT) [1] = biological target: T1, 破伤风类毒素 (TT) (破伤风梭菌 (C.tetani), UniProt P04958 2-1315)
[2] = biological target: T2, 破伤风毒素重链C端结构域 (TeNT-HC, GenBank:AF154828) (破伤风梭菌 (C.tetani), UniProt P04958 865-1315); assay: ELISA, coated TeNT-HC 1 μg/mL, T9-6 titrated 1:3 from 3.3 μg/mL
T2 sequence: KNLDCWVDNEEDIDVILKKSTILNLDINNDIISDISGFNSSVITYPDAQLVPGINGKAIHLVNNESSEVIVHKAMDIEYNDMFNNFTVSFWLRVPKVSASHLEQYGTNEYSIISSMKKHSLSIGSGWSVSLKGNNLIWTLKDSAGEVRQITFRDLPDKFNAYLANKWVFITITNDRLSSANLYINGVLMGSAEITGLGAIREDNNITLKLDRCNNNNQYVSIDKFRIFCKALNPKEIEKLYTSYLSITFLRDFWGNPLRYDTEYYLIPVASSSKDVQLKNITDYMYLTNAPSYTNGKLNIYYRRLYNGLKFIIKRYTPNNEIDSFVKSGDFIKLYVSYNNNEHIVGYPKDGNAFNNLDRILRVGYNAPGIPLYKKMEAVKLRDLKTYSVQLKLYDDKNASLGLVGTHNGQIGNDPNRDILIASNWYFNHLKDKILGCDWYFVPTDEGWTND

破伤风类毒素 (TT) [3] = biological target: T1, 破伤风类毒素 (TT); assay: ELISA, coated TT 1 μg/mL, T9-6 titrated 1:3 from 3.3 μg/mL

T1 sequence (P04958 2-457 limits assumed): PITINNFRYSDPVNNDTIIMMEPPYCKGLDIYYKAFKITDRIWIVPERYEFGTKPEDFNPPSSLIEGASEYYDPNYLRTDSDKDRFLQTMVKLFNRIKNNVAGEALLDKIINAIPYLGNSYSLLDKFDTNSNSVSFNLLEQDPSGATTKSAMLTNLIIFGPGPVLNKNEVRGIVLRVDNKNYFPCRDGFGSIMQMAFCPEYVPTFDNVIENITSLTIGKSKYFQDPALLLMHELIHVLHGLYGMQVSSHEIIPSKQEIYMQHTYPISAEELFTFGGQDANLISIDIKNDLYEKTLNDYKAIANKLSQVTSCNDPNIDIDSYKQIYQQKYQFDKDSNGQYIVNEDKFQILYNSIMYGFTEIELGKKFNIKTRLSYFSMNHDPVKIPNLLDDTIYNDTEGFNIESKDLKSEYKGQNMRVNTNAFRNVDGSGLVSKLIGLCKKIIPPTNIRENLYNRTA

B1: T9-6 人源抗破伤风毒素单克隆抗体 (antibody, V domains shown)
VH: QLVQSGGGLIQPGGSLRLSCAASGSGFSVSSNYMTWVRQAPGKGLEWVAVIYRNGSTNYADSVRGRFTISRDNSKNTVFVQMNRLRVEDTAVYYCARDFVVVVSTGPEVSYYSYGMDVWGQGTMVTGSS
VL: DIVMTQSPSSLSASVGDRVTITCRASQGISDYLSWYQQKPGKAPKRLIYGTSSLDSGVPSRFSGSGSGTEFTLTISSLQPEDVATYYCLQHHGFPRTFGQGTKVDIKR
- Kd (破伤风类毒素 (TT) [1]): 0.397 nM
- EC50 [2]: 3.45 ng/mL
- EC50 (破伤风类毒素 (TT) [3]): 6.18 ng/mL

— CN111909265A (INST MILITARY MEDICINE ACADEMY MILITARY SCIENCES PLA, dated 2020)
